Results from patent US20210196795A1 (LAURANTIS PHARMA, published 2021).

T1: uncleaved full-length VEGF-C (58 kDa precursor) (Homo sapiens (Human), UniProt P49767 32-419)
T1 construct: Made by transfected 293T cells from the mammalian VEGF-C construct of Joukov et al 1997; also called VEGF-C precursor; prepro-VEGF-C
T1 sequence: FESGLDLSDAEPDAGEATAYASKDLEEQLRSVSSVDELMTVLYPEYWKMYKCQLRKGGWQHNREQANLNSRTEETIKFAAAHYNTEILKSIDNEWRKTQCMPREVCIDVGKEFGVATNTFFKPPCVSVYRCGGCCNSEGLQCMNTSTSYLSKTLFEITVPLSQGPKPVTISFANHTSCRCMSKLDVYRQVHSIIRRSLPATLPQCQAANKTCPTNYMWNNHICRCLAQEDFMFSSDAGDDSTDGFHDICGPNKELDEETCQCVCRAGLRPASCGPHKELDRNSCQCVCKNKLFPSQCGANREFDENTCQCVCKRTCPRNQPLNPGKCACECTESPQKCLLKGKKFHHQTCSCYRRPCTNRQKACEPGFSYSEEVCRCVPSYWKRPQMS


Tests used:
[1] = molecular target: human CCBE1 fused to a V5 tag (human) (UniProt Q6UXH8); assay: cell-based or functional assay
[2] = molecular target: T1, uncleaved full-length VEGF-C (58 kDa …); assay: Strep-Tactin pull-down of mixed 293T conditioned media (CCBE1-strepIII and full-length VEGF-C, 10 min at RT), Western blot with anti-CCBE1 antibody and anti-VEGF-C antiserum
Experimental: Co-immunoprecipitation analysis of strep-tagged CCBE1. […] Mixed media were incubated for 10 min at RT before being applied to the pull-down.

inhibition of VEGF-C processing [1] [%] | binding result [2] | Molecule
43 |  | VEGF-C N-terminal propeptide, hexahistidine-tagged (from UniProt P49767 32-111)
79 |  | VEGF-C C-terminal propeptide, hexahistidine-tagged (from UniProt P49767 228-419)
 | no binding | CCBE1-strepIII (human CCBE1 with StrepIII-tag) (other, Secreted into 293T conditioned medium; also called strep-tagged CCBE1; not shown: StrepIII-tag (Junttila et al 2005) inserted immediately after the CCBE1 CDS) YREEPEDGDREICSESKIATTKYPCLKSSGELTTCYRKKCCKGYKFVLGQCIPEDYDVCAEAPCEQQCTDNFGRVLCTCYPGYRYDRERHRKREKPYCLDIDECASSNGTLCAHICINTLGSYRCECREGYIREDDGKTCTRGDKYPNDTGHEKSENMVKAGTCCATCKEFYQMKQTVLQLKQKIALLPNNAADLGKYITGDKVLASNTYLPGPPGLPGGQGPPGSPGPKGSPGFPGMPGPPGQPGPRGSMGPMGPSPDLSHIKQGRRGPVGPPGAPGRDGSKGERGAPGPRGSPGPPGSFDFLLLMLADIRNDITELQEKVFGHRTHSSAEEFPLPQEFPSYPEAMDLGSGDDHPRRTETRDLRAPRDFYP
